Experimental data taken from the supplement of paper PMC9170038.

Test system: MS2 coat protein
Assay: apparent KD of MS2 coat protein; higher = weaker reporter binding
Details: Eterna round: R107
Summary of the method: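 Illumina sequencing clusters served as templates for on-chip transcription of the designed RNA switches. SNAP-549-labelled MS2 coat protein was then titrated in twofold steps from 0.7 or 1.5 nM to 3 µM, allowing 0.8–1.5 h per step at first and 10–20 min per step later. The buffer held 100 mM Tris-HCl pH 7.5, 80 mM KCl and 4 mM MgCl2, without or with constant ligand. Apparent KD is the median per design of normalised cluster binding-curve fits.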

[1] = input ligand: theophylline 20 uM
[2] = input ligand: theophylline 2 mM
[3] = input ligand: tryptophan 2.4 mM

| Sequence | apparent KD of MS2 coat protein (input ligand: arginine 13.2 mM) | apparent KD of MS2 coat protein [1] | apparent KD of MS2 coat protein [2] | apparent KD of MS2 coat protein [3] | apparent KD of MS2 coat protein (input ligand: none) |
| --- | --- | --- | --- | --- | --- |
| ACGUUUUAGUCGGCCGCCACUGUUUUCAUGUUCAACAUGAGGAUCACCCAUGUACCUUUUUUUAUCAGGACCGGGACGUAAUAGA [JR_SSTryptoB_Sub004] | 0.0477 µM | 0.102 µM | 0.0773 µM |  |  |
| UCUUGGUCCGCAAGGACCGUGAGUUGCGAUACCAGCACGGUAACGUGCCCUUGGCAGCGCACAUGAGGAUCACCCAUGUGGUGUU [#1 Exclusion - Theophylline A Attempt #15 (HarryS)] | 0.0716 µM | 0.52 µM |  | 0.21 µM |  |
| AUUUAUAGUUGUGAUACCAGACUUACAUGAGGAUCACCCAUGUUACUUAAAUGUUUUGAUGUCCCUUGGCAGCACUGUUUUUUUA [JR_Nu_ExcTheophyB_Sub029] | 0.0161 µM | 0.0226 µM |  | 0.0164 µM |  |
| UAAUAAGUACCGGUCCUCAGAUCCUCAUGACGAGGACCGGUACGGCCGCCACUCGAAACAUGAGGAUCACCCAUGUAAUAAUAAC [Brourdmod03] | 0.023 µM | 0.077 µM | 0.0452 µM |  |  |
| CCAUAAGUACCGGUCCUCAGAUCCUCAUGACGAGGACCGGUACGGCCGCCACUCGAAACAUGAGGAUCACCCAUGUAAUAAUAUU [Brourdmod14] | 0.0193 µM | 0.0454 µM | 0.0311 µM |  |  |
| GGAUAGGACAGAAGGAGCGACAUGGCAGAAACUGCAAUCCUCCUACACGAGGAUCACCCGUGUCAGGUAGGUCGCUGUCCUAUCG [ArgXB 12 #Zipper #MS2Left #StaticStem #Blueprint] | 0.0256 µM | 0.0348 µM | 0.0369 µM | 0.0274 µM | 0.0247 µM |
| UUUACGGGAAACCGAACUAAACAAAGGGAAGGAGCGCCAAACAAGGCAGGUAGGUCGCCCACAUGAGGAUCACCCAUGUGUUGGG [Exclusion Arginine A GF 25] | 0.0326 µM | 0.0679 µM | 0.064 µM | 0.0532 µM | 0.0603 µM |
| UUGUUGUUUGGAAGGAGCGUGUAUGAGUUAGAACAUGAGGAUCACCCAUGUUGGAUGAUAGCACAGGUAGGUCGCCGGGUGGUGG [11.Y] | 0.00843 µM | 0.0185 µM | 0.0668 µM | 0.011 µM | 0.0241 µM |
| GAGCUGAUGUAGAAAUUUUAUUUAUGAGAUACCAGUACAGAAAUGUACCCUUGGCAGCUCAUUUUUACAUGAGGAUCACCCAUGU [Ex Theophylline A 14] | 0.0135 µM | 0.0128 µM |  | 0.0133 µM |  |
| AAGUGGCACGGAAGGAGCGAGUUUACCUAUUACAUGAGGAUCACCCAUGUGUAUAAUGGGACUCAGGUAGGUCGCCGUUGUCACU [Same State Arginine B GF 25] | 0.0315 µM | 0.049 µM | 0.0443 µM | 0.0316 µM | 0.0357 µM |
| GGCAAAAGGUCGGCCGCCACUGUAGGAUGUGUUCUUUCACAUGAGGAUCACCCAUGUUGUUAUUAUAGGACCGGGAUUUUAGGAC [39MS split4] | 0.0206 µM | 0.0317 µM | 0.0234 µM |  |  |
| AACGUAUACAGAAGGAGCGUGAUUUAUUAUUCUUUAAGAUAUACAUGAGGAUCACCCAUGUCACAGGUAGGUCGCUGUAUUCGUA [JR_ExcArginiB_Sub025] | 0.031 µM | 0.0423 µM | 0.0367 µM | 0.0346 µM | 0.0343 µM |
| UUUUUUAUUGGGUAUAGAAUAUUAACUGAAGGAGCGUGGUAUUACACAGGUAGGUCGCAGUUUUUACAUGAGGAUCACCCAUGUU [JR_SSArginiA_Sub010] | 0.0361 µM | 0.0515 µM | 0.0601 µM | 0.039 µM | 0.0385 µM |
| GGCGCGAGCCAACAUGAGGAUCACCCAUGUCGAGGACCGGUACGGCCGCCACUCGAACGAGUGGCGCGCGCGCGCGCGCGCGCGC [Vaa] | 0.0122 µM | 0.0179 µM | 0.019 µM | 0.0286 µM | 0.0159 µM |
| UCUGCCGCGGCUCCGAUCCUCCUGUAGUUCCGAGGACCGGUACGGCCGCCACUCGUAGCACAUGAGGAUCACCCAUGUCUUGCGG [Tiqurabira] | 0.0121 µM | 0.0175 µM | 0.013 µM |  |  |
| ACGUAAUGCGGAAGGAGCGUCAUUUUAAAACAUGAGGAUCACCCAUGUAAUAUUUUUGUGUGACAGGUAGGUCGCCGAAGUACGA [#07 Same State - Arginine B] | 0.0144 µM | 0.0193 µM | 0.0144 µM | 0.0136 µM | 0.0129 µM |
| AUCCACAGCCGAAGGAGCGCAGUAGGAUGACAUGAGGAUCACCCAUGUGUGUGAUGUGGAUUGCAGGUAGGUCGCGGAGUGGGUU [Exclusion - Arginine B (Freestyle 8)] | 0.0439 µM | 0.0725 µM | 0.0736 µM | 0.0726 µM | 0.0717 µM |
| CUAUAUAUAUCGGCCGCCACUUACUCAUGAGGUAACAACAUGAGGAUCACCCAUGUUUGAGGAUCAAGGACCGGGAUAUAUAUAG [AstrosSSTryB#15] | 0.0318 µM | 0.0334 µM | 0.0326 µM |  |  |

| Sequence | apparent KD of MS2 coat protein (input ligand: arginine 13.2 mM) | apparent KD of MS2 coat protein [1] | apparent KD of MS2 coat protein [2] | apparent KD of MS2 coat protein [3] | apparent KD of MS2 coat protein (input ligand: none) |
| --- | --- | --- | --- | --- | --- |
| AAUGUAAUAGUCGUACUCUUACACUGAGAAGGAGCGCGAAAGUUCGCAGGUAGGUCGCUCAGUUAUACAUGAGGAUCACCCAUGU [Bebemaata] | 0.0241 µM | 0.0283 µM | 0.0279 µM | 0.0241 µM | 0.0248 µM |
| ACAUGAGGAUCACCCAUGUGAGAUAGGGAAGGAGCGCAGGAGGAUGCAGGUAGGUCGCCCACAUGAGGAUCACCCGUGUCUGGAG [#11 Exclusion - Arginine A] | 0.0332 µM | 0.033 µM | 0.0624 µM | 0.0331 µM | 0.0434 µM |
| AGCAACAAGUCGGCCGCCACUCUUUUAACAUGAGGAUCACCCAUGUUUAUAUCAUGGUUUUAAUAGAGGACCGGGACAGUUGCAU [JR_ExcTryptoB_Sub005] | 0.0263 µM | 0.037 µM | 0.0432 µM |  |  |
| ACAUUGCGCUCGGCCGCCACUGGCUUAUGAUUAUAAGCAUUAAUGAACAUGAGGAUCACCCAUGUCAGGACCGGGAGCGAACCAU [SSTryp B #7] | 0.0136 µM | 0.0177 µM | 0.0149 µM |  |  |
| AAUAAACAUGAGGAUCACCCAUGUAGGGUGCGAGGACCGGUACGGCCGCCACUCGGGUGAAAACAUGAGGAUCACCCAUGUUAAA [Cloverleaf #DoubleMS2 #GUTurnoff] | 0.0755 µM | 0.176 µM | 0.229 µM |  |  |
| AAUGCUGCCAAGGAUUCCUCAUGAGCAGAUACCAGCUAGGAAACUAGCCCUUGGCAGCUGCAACAUGAGGAUCACCCAUGUAAUA [(T)'-(M)'-(T1)-(T2)-(M1)-(M2)_Design7] | 0.031 µM | 0.0942 µM |  | 0.0357 µM |  |
| UGUAUGUGAUUUGAUACCAGACCAGCUGGUGGUACCUGAGGAACACCCAGGUAGGUUUGGGUCCCUUGGCAGCAAAUCGCAUACU [SS Theo B #24 Ms7] | 0.0362 µM | 0.0344 µM | 0.0214 µM | 0.0333 µM |  |
| UCGCCCAGGAUGGAAUCCUGGGAUAUGGAAGGAGCGCUGAUGCCAGCAGGUAGGUCGCCAACGGACAUGAGGAUCACCCAUGUAC [Same State - Arginine A (Freestyle 9)] | 0.0177 µM | 0.0288 µM | 0.0212 µM | 0.0186 µM | 0.0191 µM |
| ACGAUAGGACUUGAGGAUCACCCAAGUGAUACCAGCCUGGAAACAGGCCCUUGGCAGCACUAAUACUCCAAUAACCUAUCGAAUA [TheoAX 14 #MicroSwitchBubble #AlternativeMS2] | 0.0786 µM | 0.228 µM | 0.387 µM | 0.395 µM | 0.232 µM |
| CACGGAUGAGUGGAUCACCCUCAUAAUAACCGAGGACCGGUACGGCCGCCACUCGAAAACCGUGACCUGUACGAAAAGUGCAGGA | 0.028 µM | 0.486 µM | 0.782 µM | 0.708 µM | 0.0335 µM |
| UAACAUGAGGAUCACCCAUGUAAACUAAGUCGAGGACCGGUACGGCCGCCACUCGAAAUUGAAGAAUUGGCGGAAAAUGUAUGUU [JR_ExcTryptoA_Sub018] | 0.012 µM | 0.0177 µM | 0.0133 µM |  |  |
| AGCGACAUGCGUGAUACCAGCUACAUGAGGAUCACCCAUGUACGUCAGUAAUGACUGUGUAGCCCUUGGCAGCAUAAUGCAUGUC [Exclusion - Theophylline B (Freestyle 18)] | 0.0361 µM | 0.0558 µM |  | 0.0333 µM |  |
| UCGCCCAGAAAGGAUUCCUGGGAUAUGGAAGGAGCGCUGAUGCCAGCAGGUAGGUCGCCAACGGACAUGAGGAUCACCCAUGUAC [Same State - Arginine A (Freestyle 7)] | 0.0154 µM | 0.0257 µM | 0.0217 µM | 0.018 µM | 0.0173 µM |
| ACUUUGUCGGGUGAUACCAGCCUCGGCAAAUCUCGUGCCGAACAUGAGGAUCACCCAUGUGGCCCUUGGCAGCACAUGACAACUC [Cezara] | 0.0263 µM | 0.546 µM |  | 0.912 µM |  |
| UGUAUGUGAUUUGAUACCAGACCAACUGGUAAUACAUGAGGAUCACCCAUGUAGAUUUGGGUCCCUUGGCAGCAAAUCGCAUACU [SSTheo B #23] | 0.0456 µM | 0.0341 µM |  | 0.0461 µM |  |
| UGUAUGGACUGAAGGAGCGGGUUGAUAACCUGAGGAUCAUCCAGGUAAAAGGCGAAAGCCGCCCAGGUAGGUCGCAGUCCAUACU | 0.174 µM | 0.227 µM | 0.28 µM | 0.237 µM | 0.158 µM |
| GGAUAGAUAGGAGAUACCAGAUACAUCAACAUGAGGAUCACCCAUGUGUCUGCACUAAGUGUCCCUUGGCAGCUCGGAGAUCUGA [#16 Same State - Theophylline B] | 0.024 µM | 0.0337 µM |  | 0.0324 µM |  |
